# Assay results from patent publication US20090005257A1 (published 2009).
# Substitutions are numbered along the chain they refer to. Numbers in names are those of the source.
# B1: pA-C76 (other)
# VH: EVQLLESGGGLVQPGGSLRLSCAASGDNVISDDMSWVRQAPGKGLEWVSTINGPSGSTYYADSVKGRFTISRDNSKNTLYLQMNSLRAEDTAVYYCAANGEDTDMLDMWGDRSAALKSWGQGTLVTVSS
# notes: Frameworks of DP47d, ranges as for HEL4
# B2: pA-C59 (other)
# VH: EVQLLESGGGLVQPGGSLRLSCAASGDSISDDYMAWVRQAPGKGLEWVSSIDDKNGSTYYADSVKGRFTISRDNSKNTLYLQMNSLRAEDTAVYYCAGGDGQAHKVDYWGQGTLVTVSS
# notes: as for B1
# B3: pA-C36 (other)
# VH: EVQLLESGGGLVQPGGSLRLSCAASGVNVSHDSMTWVRQAPGKGLEWVSAIRGPNGSTYYADSVKGRFTISRDNSKNTLYLQMNSLRAEDTAVYYCASGARHADTERPPSQQTMPFWGQGTLVTVSS
# notes: Frameworks of DP47d, ranges as for HEL4; also called pA-36
# B4: anti-HSA VH clone #3 (other)
# VH: EVQLLESGGGLVQPGGSLRLSCAASGFTFSKYWMSWVRQAPGKGLEWVSSIDFMGPHTYYADSVKGRFTISRDNSKNTLYLQMNSLRAEDTAVYYCAKGRTSMLPMKGKFDYWGQGTLVTVSS
# notes: As clone #1
# B5: HEL4 (other)
# VH: EVQLLESGGGLVQPGGSLRLSCAASGFRISDEDMGWVRQAPGKGLEWVSSIYGPSGSTYYADSVKGRFTISRDNSKNTLYLQMNSLRAEDTAVYYCASALEPLSEPLGFWGQGTLVTVSS
# notes: Human VH dAb against hen egg lysozyme; also called dAb HEL4; Fd-myc-HEL4
# B6: anti-HSA VH clone #6 (other)
# VH: EVQLLESGGGLVQPGGSLRLSCAASGFTFHRYSMSWVRQAPGKGLEWVSTILPGGDVTYYADSVKGRFTISRDNSKNTLYLQMNSLRAEDTAVYYCAKQTPDYMFDYWGQGTLVTVSS
# notes: As clone #1
# B7: anti-HSA VH clone #2 (other)
# VH: EVQLLESGGGLVQPGGSLRLSCAASGFTFSDYRMSWVRQAPGKGLEWVSTIISNGKFTYYADSVKGRFTISRDNSKNTLYLQMNSLRAEDTAVYYCAKQDWMYMFDYWGQGTLVTVSS
# notes: As clone #1
# B8: anti-HSA VH clone #4 (other)
# VH: B6 VH with H30Y, R31D, S33N, L52T, P53H, G54T, D56G, T100N, D102S, M104Q
# notes: As clone #1
# B9: anti-HSA VH clone #10 (other)
# VH: B6 VH with H30D, R31E, S33N, G54H, V57R, T100D, D102L, M104R
# notes: As clone #1; the one clone recovered with the heat step
# B10: pA-C13 (other)
# VH: EVQLLESGGGLVQPGGSLRLSCAASGDMVNDKDMSWVRQAPGKGLEWVSSISTENGSTYYADSVKGRFTISRDNSKNTLYLQMNSLRAEDTAVYYCAGVRDEVAMGENPDLSYWGQGTLVTVSS
# notes: From the library made by diversifying the CDR loops of DP47d; frameworks of DP47d, ranges as for HEL4; also called Clone 13
# B11: TAR1-5-19 (other)
# VL: DIQMTQSPSSLSASVGDRVTITCRASQSIDSYLHWYQQKPGKAPKLLIYSASELQSGVPSRFSGSGSGTDFTLTISSLQPEDFATYYCQQVVWRPFTFGQGTKVEIKR
# notes: Vκ1 single domain (dAb) specific for TNF-α; also called PEP1-5-19
# B12: TAR1-5-19-Y49N (other)
# VL: B11 VL with Y49N
# B13: TAR1-5-19-Y49D (other)
# VL: B11 VL with Y49D
# B14: pA-C47 (other)
# VH: EVQLLESGGGLVQPGGSLRLSCAASGYNITDENMAWVRQAPGKGLEWVSTIAADNGSTYYADSVKGRFTISRDNSKNTLYLQMNSLRAEDTAVYYCATTEAAGVEEDNVRSWGQGTLVTVSS
# notes: as for B1
# B15: anti-HSA VH clone #7 (other)
# VH: EVQLLESGGGLVQPGGSLRLSCAASGFTFWKYNMAWVRQAPGKGLEWVSTILGEGNNTYYADSVKGRFTISRDNSKNTLYLQMNSLRAEDTAVYYCAKTMDYKFDYWGQGTLVTVSS
# notes: As clone #1
# B16: anti-HSA VH clone #1 (other)
# VH: EVQLLESGGGLVQPGGSLRLSCAASGFTFDLYDMSWVRQAPGKGLEWVSSIVNSGVRTYYADSVKGRFTISRDNSKNTLYLQMNSLRAEDTAVYYCAKLNQSYHWDFDYWGQGTLVTVSS
# notes: From library 4G (human VH3, DP47 germline gene + JH4 segment)
# B17: DP47 F27D/F29V (other, name in Kabat numbering)
# VH: EVQLLESGGGLVQPGGSLRLSCAASGDTVSSYAMSWVRQAPGKGLEWVSAISGSGGSTYYADSVKGRFTISRDNSKNTLYLQMNSLRAEDTAVYYCAKSYGAFDYWGQGTLVTVSS
# B18: DP47 S53P/G54D (other, name in Kabat numbering)
# VH: B17 VH with D27F, V29F, S54P, G55D
# B19: DP47 F27D/F29V/Y32D/S35G (other, name in Kabat numbering)
# VH: B17 VH with Y32D, S35G
# notes: kept apart as printed
# B20: DP47 quadruple mutant F27D/F29V/S35G/Y32E (other, name in Kabat numbering)
# VH: B17 VH with Y32E, S35G
# B21: DP47 S30N/A33D (other, name in Kabat numbering)
# VH: B17 VH with D27F, V29F, S30N, A33D
# notes: also called A33D/S30N
# B22: TAR2-10-27 (other)
# VH: EVQLLESGGGLVQPGGSLRLSCAASGFTFEWYWMGWVRQAPGKGLEWVSAISGSGGSTYYADSVKGRFTISRDNSKNTLYLQMNSLRAEDAAVYYCAKVKLGGGPNFGYRGQGTLVTVSS
# notes: Human VH3 single domain (dAb) against human TNFR1, tested as soluble protein purified on protein A beads
# B23: TAR2-10-27-Y32D (other)
# VH: B22 VH with Y32D
# B24: TAR2-10-27-F27D (other)
# VH: B22 VH with F27D
# notes: Soluble dAb
# Experiments:
# protein A [1] = target: T1, protein A (UniProt P38507 37-477); test: phage ELISA on protein A, heated 80 C against unheated, titration (Section 5)
# T1 construct: also called pA
# Description: (§1) After biotinylation of the phage, for each clone, a 100 μl sample of phage was transferred to a thin-wall PCR tube (and the remaining biotinylated phage was kept on ice). The tube was placed in a PCR apparatus for incubation at 80° C. during 10 min (temperature of cover lid: 85° C.). After heating, the tube was rapidly cooled down to 4° C. in the PCR apparatus.
# (§2) ELISA plates were coated and blocked as described in Section 4. The samples were transferred to the empty wells of coated/blocked ELISA plates, and incubated for 2 hours at room temperature. Unbound phage was then removed by washing the wells 6-ties with PBS. For detection, Str-HRP (from a 1 mg/ml stock in PBS) were diluted 1/2000 in PBS supplemented with 2% v/v TWEEN 20 (Polyoxyethylensorbitan monolaurate; for protein A-based ELISA) or 2% w/v BSA (for protein L-based ELISA), and 100 μl of the resulting solution was added to each ELISA well. After incubation for 1 hour at room temperature, the unbound conjugate was removed by washing the wells 6-times with PBS. For colorimetric reaction, a 10 mg/ml solution of TMB (tetramethylbenzidine) was diluted 100-fold in a buffer of 0.1 M sodium acetate, pH 6.0. Next, hydrogen peroxyde was added (0.4 ul per ml of buffer/TMB, and 100 ul of this solution was added to each ELISA well. After color (blue) developed, the reaction was stopped by adding 50 μl of 1 M sulfuric acid per well (color turns to yellow). The optical density was recorded at 450 nm.
# protein A [2] = target: T1, protein A; test: phage ELISA on protein A, heated 80 C against unheated, three data points
# Description: as §1, §2
# These clones were characterized for refoldability on phage (according to the protocol of Section 5, but with three data points being taken) and in solution.
# human serum albumin [3] = target: T2, human serum albumin (human, UniProt P02768 25-609); test: phage ELISA on HSA, heated against unheated
# T2 construct: also called HSA
# T2 sequence (P02768 25-609 limits assumed): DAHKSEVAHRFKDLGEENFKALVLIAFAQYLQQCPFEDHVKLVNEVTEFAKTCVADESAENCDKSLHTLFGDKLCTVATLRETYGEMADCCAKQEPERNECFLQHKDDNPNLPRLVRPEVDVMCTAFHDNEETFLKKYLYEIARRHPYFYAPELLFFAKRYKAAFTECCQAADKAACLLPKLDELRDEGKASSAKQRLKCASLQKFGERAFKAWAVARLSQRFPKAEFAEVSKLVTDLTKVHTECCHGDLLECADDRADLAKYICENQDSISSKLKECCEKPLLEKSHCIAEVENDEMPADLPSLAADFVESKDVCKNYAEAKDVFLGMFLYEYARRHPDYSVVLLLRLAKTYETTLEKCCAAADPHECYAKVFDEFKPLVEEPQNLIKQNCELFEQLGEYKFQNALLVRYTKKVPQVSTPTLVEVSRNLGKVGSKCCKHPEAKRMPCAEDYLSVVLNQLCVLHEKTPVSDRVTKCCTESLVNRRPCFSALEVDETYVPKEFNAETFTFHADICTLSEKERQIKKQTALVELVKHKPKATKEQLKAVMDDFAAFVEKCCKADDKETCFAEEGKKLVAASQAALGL
# Description: The ELISA wells were coated overnight at 4° C. with one of the following ligands: 10 μg/ml of protein A in PBS, 10 μg/ml of mAb 9E10 in PBS, or 3 mg/ml of HEL in 0.1 M NaHCO₃ buffer, pH 9.6. After blocking the wells with PBS containing 2% Tween-20 (PBST), a dilution series of phage in PBST was incubated for 2 h. After washing with PBS, bound phage were detected as follows. In assays for binding to REL, phage was detected directly using a conjugate of horseradish peroxidase with an anti-M13 monoclonal antibody (Amersham) using 3,3′,5,5′-tetramethylbenzidine as substrate. In assays for binding to protein A, the phage (4×10¹⁰ TU/ml in PBS) was first biotinylated at 4° C. with biotin-NHS (Perbio) (50 μM final concentration) and detected by sequential addition of streptavidin-horseradish peroxidase conjugate (1 μg/ml) (Sigma-Aldrich) in PBST, and substrate as above. In assays for binding to human serum albumin (USA) (Sigma, coating at 10 μg/ml in PBS), the ELISA was performed in PBS supplemented with 2% skim-milk powder (PBSM) and bound phage were detected in two steps using a rabbit anti-fd bacteriophage monoclonal antibody (Sigma, 1/1000 dilution) and goat anti-rabbit IgG serum conjugated with horseradish peroxidase (Sigma, 1/1000 dilution) and substrate as above.
# human serum albumin [4] = target: T2, human serum albumin; test: phage ELISA on HSA, purified phage, 1/3 dilution series
# Description: (§3) A phage ELISA was performed according to the protocol of Section 5 with the following modifications. 1×10¹⁰ phage were either heat-treated (10 minutes at 80° C. in 100 μL aliquots) or left untreated. The samples were centrifuged for 10 minutes at 14,000 rpm at 4° C. and the supernatants were added to ELISA wells coated with HSA (with a dilution series of ⅓). After developing the ELISA, the OD450 nm values (y-axis) for each heat treated/unheated phage pair were plotted against the phage number α-axis) and the %-refoldability was calculated.
# human serum albumin [5] = target: T2, human serum albumin; test: phage ELISA on HSA, heated 80 C 10 min against unheated
# Description: as §3
# protein A [6] = target: T1, protein A; test: phage ELISA on protein A, multivalent phage 5x10^11 TU/ml, 80 C 10 min against untreated
# Description: The ELISA wells were coated overnight at 4° C. with one of the following ligands: 10 μg/ml of protein A in PBS, 10 μg/ml of mAb 9E10 in PBS, or 3 mg/ml of HEL in 0.1 M NaHCO₃ buffer, pH 9.6. After blocking the wells with PBS containing 2% Tween-20 (PBST), a dilution series of phage in PBST was incubated for 2 h. After washing with PBS, bound phage were detected as follows. […] In assays for binding to protein A, the phage (4×10¹⁰ TU/ml in PBS) was first biotinylated at 4° C. with biotin-NHS (Perbio) (50 μM final concentration) and detected by sequential addition of streptavidin-horseradish peroxidase conjugate (1 μg/ml) (Sigma-Aldrich) in PBST, and substrate as above.
# hen egg lysozyme = target: T3, hen egg lysozyme (hen, UniProt P00698 19-147); test: phage ELISA on immobilised HEL
# T3 construct: also called HEL; hen egg white lysozyme
# T3 sequence (P00698 19-147): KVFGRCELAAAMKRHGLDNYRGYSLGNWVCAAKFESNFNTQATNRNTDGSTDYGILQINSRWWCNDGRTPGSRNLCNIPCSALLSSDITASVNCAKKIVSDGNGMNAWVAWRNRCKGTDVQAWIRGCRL
# Description: Phage ELISA assays. The ELISA wells were coated overnight at 4° C. with one of the following ligands: 10 μg/ml of protein A in PBS, 10 μg/ml of mAb 9E10 in PBS, or 3 mg/ml of HEL in 0.1 M NaHCO₃ buffer, pH 9.6. After blocking the wells with PBS containing 2% Tween-20 (PBST), a dilution series of phage in PBST was incubated for 2 h. After washing with PBS, bound phage were detected as follows. In assays for binding to REL, phage was detected directly using a conjugate of horseradish peroxidase with an anti-M13 monoclonal antibody (Amersham) using 3,3′,5,5′-tetramethylbenzidine as substrate.
# TNF-α [7] = target: T4, TNF-α (UniProt P01375 77-233); test: RBA-ELISA: dAb competes with binding of soluble TNF-α to immobilised TNF-α receptor
# T4 construct: also called tumour necrosis factor
# T4 sequence (P01375 77-233 limits assumed): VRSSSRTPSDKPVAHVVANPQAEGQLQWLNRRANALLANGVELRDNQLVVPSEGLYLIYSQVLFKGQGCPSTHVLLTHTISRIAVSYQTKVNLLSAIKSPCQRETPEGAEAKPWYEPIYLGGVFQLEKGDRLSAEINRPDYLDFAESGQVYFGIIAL
# TNF-α [8] = target: T4, TNF-α; test: phage ELISA on TNF-α coated wells, heated 80 C 10 min against unheated
# TNF-α [9] = target: T4, TNF-α; test: RBA-ELISA
# [10] = target: T5, TNF receptor 1 Fc fusion protein (human, UniProt P19438 30-211); test: receptor binding ELISA: dAb mixed with TNF (10 ng/ml) and added to TNFR1-Fc captured by anti-human Fc; bound TNF detected with biotinylated anti-TNF antibody; blocked ligand TNF
# T5 construct: Bought; also called recombinant TNF receptor 1 (p55); human Tumor Necrosis Factor Receptor 1; not shown: Fc part of the bought fusion protein (captured by an anti-human Fc antibody)
# T5 sequence (looked up): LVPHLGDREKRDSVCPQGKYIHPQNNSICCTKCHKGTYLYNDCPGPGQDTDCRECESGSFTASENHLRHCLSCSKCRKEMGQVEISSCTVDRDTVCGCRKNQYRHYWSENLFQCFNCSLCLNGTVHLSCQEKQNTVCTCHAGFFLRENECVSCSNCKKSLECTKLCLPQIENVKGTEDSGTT
# [11] = target: T6, human Tumor Necrosis Factor Receptor 1 (TNFR1) expressed on HeLa cells (human, UniProt P19438 30-455); test: cell-based or functional assay
# T6 sequence (looked up): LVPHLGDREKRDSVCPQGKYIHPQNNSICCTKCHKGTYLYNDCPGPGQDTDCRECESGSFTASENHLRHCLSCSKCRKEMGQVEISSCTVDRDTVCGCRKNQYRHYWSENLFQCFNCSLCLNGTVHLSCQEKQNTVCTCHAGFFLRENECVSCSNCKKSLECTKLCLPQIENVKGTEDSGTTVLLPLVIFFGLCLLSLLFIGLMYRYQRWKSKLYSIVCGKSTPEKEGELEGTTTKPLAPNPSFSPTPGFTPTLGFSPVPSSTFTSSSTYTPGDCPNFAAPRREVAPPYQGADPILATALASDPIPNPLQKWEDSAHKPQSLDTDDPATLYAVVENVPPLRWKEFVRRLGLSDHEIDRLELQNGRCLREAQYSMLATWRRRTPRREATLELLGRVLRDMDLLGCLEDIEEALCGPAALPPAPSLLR
binder,measurement,setting,value
B1,% refolding (protein A binding retained after heating),protein A [1],35%
B2,% refolding (protein A binding retained after heating),protein A [1],25%
B3,% refolding (protein A binding retained after heating),protein A [1],25%
same,Refoldability on phage (protein A binding retained after heating),protein A [2],80%
B4,% HSA binding signal retained after heating,human serum albumin [3],< 10%
same,"phage number, +Heat",human serum albumin [4],1e+10 phage
same,"phage number, -Heat",human serum albumin [4],5.5e+07 phage
same,Refoldability (HSA binding retained after heating),human serum albumin [5],0.55%
B5,fold reduction of binding after heating,protein A [6],3 fold
same,% refolding (protein A binding retained after heating),protein A [1],18.5%
same,Refoldability on phage (protein A binding retained after heating),protein A [2],82%
same,binding result,hen egg lysozyme,binds
B6,% HSA binding signal retained after heating,human serum albumin [3],< 10%
same,"phage number, +Heat",human serum albumin [4],9.75e+09 phage
same,"phage number, -Heat",human serum albumin [4],2.1e+07 phage
same,Refoldability (HSA binding retained after heating),human serum albumin [5],< 0.2%
B7,% HSA binding signal retained after heating,human serum albumin [3],< 10%
same,"phage number, +Heat",human serum albumin [4],1e+10 phage
same,"phage number, -Heat",human serum albumin [4],1.3e+09 phage
B8,% HSA binding signal retained after heating,human serum albumin [3],< 10%
same,"phage number, +Heat",human serum albumin [4],1e+10 phage
same,"phage number, -Heat",human serum albumin [4],5.7e+08 phage
same,Refoldability (HSA binding retained after heating),human serum albumin [5],9.1%
B9,"phage number, +Heat",human serum albumin [4],1e+10 phage
same,"phage number, -Heat",human serum albumin [4],1e+10 phage
same,Refoldability (HSA binding retained after heating),human serum albumin [5],~100%
B10,% refolding (protein A binding retained after heating),protein A [1],35%
B11,IC50,TNF-α [7],0.03 µM
same,% refolding (TNF-α binding retained after heating),TNF-α [8],80%
B12,fold reduction of binding against TAR1-5-19,TNF-α [9],6 to 20 fold
same,IC50,TNF-α [7],0.9 µM
same,% refolding (TNF-α binding retained after heating),TNF-α [8],98%
B13,fold reduction of binding against TAR1-5-19,TNF-α [9],6 to 20 fold
same,IC50,TNF-α [7],0.2 µM
same,% refolding (TNF-α binding retained after heating),TNF-α [8],93%
B14,% refolding (protein A binding retained after heating),protein A [1],25%
B15,% HSA binding signal retained after heating,human serum albumin [3],< 10%
B16,% HSA binding signal retained after heating,human serum albumin [3],< 10%
same,"phage number, +Heat",human serum albumin [4],1e+10 phage
same,"phage number, -Heat",human serum albumin [4],1.5e+08 phage
same,Refoldability (HSA binding retained after heating),human serum albumin [5],1.5%
B17,Refoldability on phage (protein A binding retained after heating),protein A [2],62%
B18,Refoldability on phage (protein A binding retained after heating),protein A [2],19%
B19,Refoldability on phage (protein A binding retained after heating),protein A [2],80%
B20,% refolding (protein A binding retained after heating),protein A [1],29.5%
B21,% refolding (protein A binding retained after heating),protein A [1],2.11%
same,Refoldability on phage (protein A binding retained after heating),protein A [2],81%
B22,IC50 (read off the curve),[10],~0.005 µM
same,"IC50 (read off the curve), inhibition of TNF-induced IL-8 secretion of HeLa cells",[11],~0.01 µM
B23,"IC50 (read off the curve), inhibition of TNF-induced IL-8 secretion of HeLa cells",[11],~0.005 µM
B24,IC50 (read off the curve),[10],~0.006 µM
